Experimental findings from US20240417475A1 (AFFIMED, published 2024) are described below.

Assay [1] deals with T1, human FOLR1 endogenously expressed on tumor cell lines (human, UniProt P15328 25-234). The assay can be described thus: cell-based or functional assay.
Assay [2] deals with T1, human FOLR1 endogenously expressed on …. The assay can be described thus: flow cytometry on HCC-827 cells, 37 C, one-site fit of MFI, mean. The procedure:
(§1) Cells were collected and centrifuged at 400×g, 5 min, 4° C. Cell pellets were resuspended in FACS buffer (PBS (Invitrogen, cat.: 392-0434) containing 2% h.i. FCS (Invitrogen, cat.: 10500-064), and 0.1% sodium azide (Sigma, cat.: S8032)) at 1-5×10⁶ cells/mL. 100 μL/well of the cell suspension were transferred into U-shaped, 96-well micro plates (0.1-0.5×10⁶ cells per well), cells were pelleted at 400×g, 5 min, 4° C., and resuspended in 100 μL/well of serial dilutions of the indicated antibodies in FACS buffer. After 40-50 min incubation at 37° C., cells were washed 3-times with ice-cold FACS buffer. […] After the final incubation step, cells were washed 2-times with ice-cold FACS buffer, and the cell pellet was resuspended in 100 μL FACS buffer. Fluorescence intensities of >1×10⁴ viable cells were analyzed by flow cytometry and the median fluorescence intensity (MFI) was determined for each sample.
(§2) Equilibrium dissociation constants (KD) of antibody binding, mean and standard deviation (SD) were calculated by plotting MFI values and fitting a non-linear regression model for one-site binding to hyperbolic dose-response curves using GraphPad Prism for Windows (v9; GraphPad Software; La Jolla California USA).
(§3) Specific antibody binding capacity (SABC) as a marker for FOLR1 expression level on cells was determined on all tumor cell lines using QIFIKIT.
(In flow cytometry, cells or beads pass a laser one at a time.)

Assay [3] shares this target. The assay can be described thus: flow cytometry on IGROV-1 cells, 37 C, one-site fit of MFI, mean. The procedure:
as §1, §2, §3

For assay [4] the target is unchanged. The assay can be described thus: flow cytometry on OVCAR-3 cells, 37 C, one-site fit of MFI, mean. The method, then: as §1, §2, §3
For assay [5] the target is unchanged. As to the kind of experiment: flow cytometry on NCI-H2110 cells, 37 C, one-site fit of MFI, mean. The procedure: as §1, §2, §3
Assay [6] concerns the target T2, human CD16A-mFc (158V) (sAg_149) (human, UniProt P08637 17-208).
T2 construct: also called CD16A 158V (sAg_149); recombinant human CD16A 158V
As to the kind of experiment: ELISA, plate coated with human CD16A-mFc (158V) (sAg_149), one-site fit, mean of 3. The method, then: (§4) After incubation with the secondary antibodies, the plate was washed five times with PBST and one time with PBS. Chromogenic substrate (1:1 mixture of TMB:TMBB, SeraCare cat: 5120-0048 and 5120-0037) was added and the reaction was stopped by addition of an equal volume of 0.5 M H₂SO₄ after sufficient color development. Absorbance at 450 nm was measured in an ELISA plate reader (Sunrise Absorbance Reader 901000833, Schoeller Instruments). The absorbance values were corrected by subtracting the background of the respective secondary antibody and fitted with a one site binding function (hyperbola) using GraphPad Prism (version 9.3.1. GraphPad Software, La Jolla California USA). KD is the concentration of ligand required to reach half-maximal binding.
Background: In an ELISA, binding on a coated surface is turned into a signal by an enzyme label.

Assay [7] deals with T3, human FOLR1-mFc_Avi-tag (sAg_303) (human, UniProt P15328 25-234, limits assumed).
T3 construct: also called human FOLR1 (sAg_303); recombinant human FOLR1
As to the kind of experiment: ELISA, plate coated with human FOLR1-mFc_Avi-tag (sAg_303), one-site fit, mean of 3. The procedure: as §4, with “96 well ELISA plates (F96 Maxisorp Immuno Plate, Nunc, cat: 442404) were coated overnight at 4° C. with 50 μL/well of 10 μg/mL human FOLR1-mFc_Avi-tag in DPBS. After overnight incubation plates were washed three times with PBST and blocked with Candor Blocking solution for 2 h at RT under mild agitation. […] After” for “After”

Assay [8] has as its target T3, human FOLR1-mFc_Avi-tag (sAg_303). The assay can be described thus: ELISA, plate coated with human FOLR1-mFc_Avi-tag, anti-human Fab-HRP detection, A450. The procedure:
as §4, with “96 well ELISA plates (F96 Maxisorp Immuno Plate, Nunc, cat: 442404) were coated overnight at 4° C. with 50 μL/well of 10 μg/mL human FOLR1-mFc_Avi-tag in DPBS. After overnight incubation plates were washed three times with PBST and blocked with Candor Blocking solution for 2 h at RT under mild agitation. […] After” for “After”

The target of assay [9] is T1, human FOLR1 endogenously expressed on …. As to the kind of experiment: flow cytometry on IGROV-1 cells (FOLR1 high) at 37 °C, FITC anti-human IgG detection. The procedure: as §1
The target is the same in assay [10]. As to the kind of experiment: flow cytometry on OVCAR-3 cells (FOLR1 medium) at 37 °C, FITC anti-human IgG detection. The method, then: as §1
Assay [11] concerns the target T4, human CD16A (158F) expressed on CHO cells (cAg_34) (human, UniProt P08637 17-254).
T4 construct: also called huCD16A-transfected CHO cells
As to the kind of experiment: flow cytometry on huCD16A-transfected CHO cells (cAg_34), one-site fit of MFI, mean of 3. The method, then:
(§5) To analyze binding of different antibody constructs to CHO cells transfected with human CD16A (cAg_34), relative to CD16 expression by flow cytometry, 1-2×10⁵ were resuspended in 100 μL FACS buffer (PBS (Invitrogen, cat.: 14190-169) containing 2% heat-inactivated FCS (Invitrogen, cat.: 10270-106), and 0.1% sodium azide (Roth, Karlsruhe, Germany, cat.: A1430.0100)) in round-bottom 96-well microtiter plates. After washing in FACS buffer, cells were incubated in 50 μL FACS buffer without antibodies or with titrated antibodies starting at a concentration of 100 μg/mL followed by ten 5-fold serial dilutions for 30 min on ice in the dark. […] After washing, binding was measured by flow cytometry and mean fluorescence intensities (MFI) of cell samples were calculated and corrected for background staining using control cells stained with secondary antibodies only.
(§6) Equilibrium dissociation constants (KD) of antibody binding were calculated by plotting MFI values and fitting a non-linear regression model for one-site binding to hyperbolic dose-response curves using GraphPad Prism.

The target in assay [12] is T4, human CD16A (158F) expressed on CHO …. As to the kind of experiment: flow cytometry on huCD16A-transfected CHO cells (cAg_34), one-site fit of MFI, experiment 1. The method, then:
as §5, §6

The target is the same in assay [13]. As to the kind of experiment: flow cytometry on huCD16A-transfected CHO cells (cAg_34), one-site fit of MFI, experiment 2. The method, then:
as §5, §6

For assay [14] the target is unchanged. The assay can be described thus: flow cytometry on huCD16A-transfected CHO cells (cAg_34), one-site fit of MFI, experiment 3. The procedure: as §5, §6
Assay [15] shares this target. As to the kind of experiment: flow cytometry on huCD16A-transfected CHO cells, on ice, APC goat anti-human IgG detection. The method, then:
as §5

T1 sequence (P15328 25-234): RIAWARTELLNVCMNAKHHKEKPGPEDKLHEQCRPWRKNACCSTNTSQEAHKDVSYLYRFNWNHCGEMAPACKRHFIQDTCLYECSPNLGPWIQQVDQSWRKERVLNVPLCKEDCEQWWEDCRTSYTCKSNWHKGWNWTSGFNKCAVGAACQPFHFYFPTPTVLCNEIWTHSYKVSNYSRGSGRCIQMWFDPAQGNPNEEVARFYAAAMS
T4 sequence (P08637 17-254 limits assumed): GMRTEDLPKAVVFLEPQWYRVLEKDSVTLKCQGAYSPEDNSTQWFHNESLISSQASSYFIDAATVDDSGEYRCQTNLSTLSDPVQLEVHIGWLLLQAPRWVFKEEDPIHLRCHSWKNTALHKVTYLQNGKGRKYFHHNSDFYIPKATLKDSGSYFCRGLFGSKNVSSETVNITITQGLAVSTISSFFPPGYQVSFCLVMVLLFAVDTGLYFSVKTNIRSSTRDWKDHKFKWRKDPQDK
T3 sequence (P15328 25-234 limits assumed): as the sequence (P15328 25-234) above
T2 sequence (P08637 17-208 F176V limits assumed): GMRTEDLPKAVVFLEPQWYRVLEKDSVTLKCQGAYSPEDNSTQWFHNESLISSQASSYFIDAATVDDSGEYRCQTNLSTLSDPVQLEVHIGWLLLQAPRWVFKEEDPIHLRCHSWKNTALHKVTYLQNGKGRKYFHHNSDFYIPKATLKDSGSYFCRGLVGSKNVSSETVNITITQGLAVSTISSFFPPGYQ

B1: anti-FOLR1 IgG1 IgAb_335 (antibody)
chain 1: not shown
chain 2: DIQLTQSPSSLSASVGDRVTITCSVSSSISSNNLHWYQQKPGKAPKPWIYGTSNLASGVPSRFSGSGSGTDYTFTISSLQPEDIATYYCQQWSSYPYMYTFGQGTKVEIKRTVAAPSVFIFPPSDEQLKSGTASVVCLLNNFYPREAKVQWKVDNALQSGNSQESVTEQDSKDSTYSLSSTLTLSKADYEKHKVYACEVTHQGLSSPVTKSFNRGEC
notes: IgG1 with farletuzumab-derived Fv domains and wild-type Fc; also called IgAb_355; anti-FOLR1 IgG1 antibody comprising wild-type Fc
What is called Kd is the constant that tells how readily two partners part at equilibrium. What is called EC50 (read off the curve) is the concentration that produces a half-maximal response. Lower therefore signals a more potent agent. Consider B1, for which the “EC50 [nM] of ADCP, HCC-78 cells” value in [1] worked out at 0.81 nM. In assay [1], the “EC50 [nM] of ADCP, HeLa cells” value came to 0.78 nM. In assay [1], the “Phagocytosis [%], 4 h ADCP, DK-MG cells” value came out at 0%. In assay [1], the “Phagocytosis [%], 4 h ADCP, HCC-78 cells” value is 10.7%. Besides, the “Phagocytosis [%], 4 h ADCP, HeLa cells” value in assay [1] turned out to be 16.4%. In addition, the Kd was 3.2 nM in assay [2]; 4.4 nM in [3]; 1.8 nM in assay [4]; 2.3 nM in assay [5]; 3.53 nM in assay [6]; 0.05 nM in assay [7]. In addition, the figures for the 50% effective concentration (EC50 (read off the curve)) in assay [8], in assay [9] and in assay [10] were around 0.05 nM, around 4 nM and around 2 nM, respectively.

B2: scFv-IgAb_268 (CD123-1×CD16a1) (bispecific antibody)
heavy: QVQLQQSGAEVKKPGASVKVSCKASGYTFTDYYMKWVKQSHGKSLEWMGDIIPSNGATFYNQKFKGKATLTVDRSTSTAYMELSSLRSEDTAVYYCARSHLLRASWFAYWGQGTLVTVSSASTKGPSVFPLAPSSKSTSGGTAALGCLVKDYFPEPVTVSWNSGALTSGVHTFPAVLQSSGLYSLSSVVTVPSSSLGTQTYICNVNHKPSNTKVDKKVEPKSCDKTHTCPPCPAPEFEGGPSVFLFPPKPKDTLMISRTPEVTCVVVAVSHEDPEVKFNWYVDGVEVHNAKTKPREEQYNSTYRVVSVLTVLHQDWLNGKEYKCKVSNKALPAPIEKTISKAKGQPREPQVYTLPPSREEMTKNQVSLTCLVKGFYPSDIAVEWESNGQPENNYKTTPPVLDSDGSFFLYSKLTVDKSRWQQGNVFSCSVMHEALHNHYTQKSLSLSPGGGGGSGGGGSGGGGSGGGGSGGGGSGGGGSSYELTQPLSVSVALGQTARITCGGNNIGSKSVHWYQQKPGQAPVLVIYQDKKRPSGIPERFSGSNSGNTATLTISRAQAGDEADYYCQVWDDYIVLFGCGTKLTVLGGSGGSGGSGGSGGSGGSGGSQVQLVQSGAEVKKPGASVKVSCKASGYTFTNYYMQWVRQAPGQCLEWMGIINPSGGVTSYAQKFQGRVTMTRDTSTSTVYMELSSLRSEDTAVYYCARGSAYYYDFADYWGQGTLVTVSS
light: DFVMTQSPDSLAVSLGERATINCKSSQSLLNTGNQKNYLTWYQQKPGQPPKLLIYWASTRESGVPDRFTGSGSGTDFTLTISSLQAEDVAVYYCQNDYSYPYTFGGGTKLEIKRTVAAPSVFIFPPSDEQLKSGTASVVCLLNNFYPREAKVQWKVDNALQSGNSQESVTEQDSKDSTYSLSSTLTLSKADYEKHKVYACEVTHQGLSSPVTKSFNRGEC
notes: also called AFM28; CD123×CD16A scFv-IgAb_268
Regarding B2, the Kd came out at 16.3 nM in assay [11], 17.7 nM in assay [12], 7.8 nM in [13] and 23.5 nM in assay [14]. Also, the concentration giving a half-maximal response (EC50 (read off the curve)) in [15] was around 8 nM.

B3: scFv-IgAb_148 (CD123-1×CD16a2) (bispecific antibody)
chain 1: QVQLQQSGAEVKKPGASVKVSCKASGYTFTDYYMKWVKQSHGKSLEWMGDIIPSNGATFYNQKFKGKATLTVDRSTSTAYMELSSLRSEDTAVYYCARSHLLRASWFAYWGQGTLVTVSSASTKGPSVFPLAPSSKSTSGGTAALGCLVKDYFPEPVTVSWNSGALTSGVHTFPAVLQSSGLYSLSSVVTVPSSSLGTQTYICNVNHKPSNTKVDKKVEPKSCDKTHTCPPCPAPEFEGGPSVFLFPPKPKDTLMISRTPEVTCVVVAVSHEDPEVKFNWYVDGVEVHNAKTKPREEQYNSTYRVVSVLTVLHQDWLNGKEYKCKVSNKALPAPIEKTISKAKGQPREPQVYTLPPSREEMTKNQVSLTCLVKGFYPSDIAVEWESNGQPENNYKTTPPVLDSDGSFFLYSKLTVDKSRWQQGNVFSCSVMHEALHNHYTQKSLSLSPGGGGGSGGGGSGGGGSGGGGSGGGGSGGGGSSYVLTQPSSVSVAPGQTATISCGGHNIGSKNVHWYQQRPGQSPVLVIYQDNKRPSGIPERFSGSNSGNTATLTISGTQAMDEADYYCQVWDNYSVLFGGGTKLTVLGGSGGSGGSGGSGGSGGSGGSQVQLVQSGAEVKKPGESLKVSCKASGYTFTSYYMHWVRQAPGQGLEWMGAIEPMYGSTSYAQKFQGRVTMTRDTSTSTVYMELSSLRSEDTAVYYCARGSAYYYDFADYWGQGTLVTVSS
chain 2: not shown
notes: also called CD123×CD16A scFv-IgAb_148; CD123/CD16A scFv-IgAb_148
In the case of B3, the Kd was 37.6 nM in assay [11], 56.2 nM in assay [12], 18.7 nM in assay [13] and 37.9 nM in assay [14]. Further, the “EC50 (read off the curve)” value in [15] is around 20 nM.
